Substrate in this series: Nc1ncnc2c1ncn2[C@@H]1O[C@H](COP(=O)(O)OP(=O)(O)OP(=O)(O)O)[C@@H](O)[C@H]1O
The series can be described thus: NADH-coupled ATPase assay (pyruvate kinase / lactate dehydrogenase). Type of series: biochemical, Arabidopsis thaliana. Conditions: geldanamycin-sensitive activity, 25 mM HEPES pH 7.5, 5 mM MgCl2, 400 mM KCl, 0.03% Tween 20, 10% glycerol. From the text: NADH-coupled ATPase assay (pyruvate kinase / lactate dehydrogenase) on HSP90.7 (AtHSP90.7; mature form R73–L823)

Where [1] appears, read: HSP90.7^Δ22 (D488–G509 deleted by SpeI cleavage and religation; a SpeI-site scar may remain).

B1: HSP90.7 (AtHSP90.7; mature form R73–L823) (Arabidopsis thaliana; DEL488-509) (protein)
chain: RSNAEKFEFQAEVSRLMDIIINSLYSNKDIFLRELISNASDALDKIRFLALTDKDVLGEGDTAKLEIQIKLDKAKKILSIRDRGIGMTKEDLIKNLGTIAKSGTSAFVEKMQSSGDLNLIGQFGVGFYSAYLVADYIEVISKHNDDSQYVWESKANGKFAVSEDTWNEPLGRGTEIRLHLRDEAGEYLEESKLKELVKRYSEFINFPISLWASKEVETEVPVEEDESADEETETTSTEEEKEEDAEEEDGEKKQKTKKVKETVYEWELLNDVKAIWLRSPKEVTEEEYTKFYHSLSKDFTDEKPMAWSHFNAEGDVEFKAVLYVPPKAPHDLYESYYNSNKANLKLYVRRVFISDEFDELLPKYLSFLKGLVDSDTLPLNVSREMLQQHSSLKTIKKKLIRKALDMIRKLAEEDPQYTKFWNEFGKSVKLGIIEDAANRNRLAKLLRFETTKSDGKLTSLDQYIKRMKKSQKDIFYITGSSKEQLEKSPFLERLIKKGYEVIFFTDPVDEYLMQYLMDYEDKKFQNVSKEGLKVGKDSKDKELKEAFKELTKWWKGNLASENVDDVKISNRLADTPCVVVTSKFGWSANMERIMQSQTLSDANKQAYMRGKRVLEINPRHPIIKELKDRIASDPEDESVKETAQLMYQTALIESGFILTDPKDFAARIYNSVKSGLNISPDAVADEEIEAAEEPETSEATETKSDDLAGGLNIEAEPVEQQEENTKDEL
notes: predicted mature form R73-L823, signal peptide removed, vector p11, E. coli BL21(DE3)-pRIL, His6-tag cut with TEV protease, size-exclusion purified
As to B1, under setting [1], the Km was 440 ± 110 µM, the kcat was 0.039 ± 0.0025 s⁻¹ and the kcat/Km came to 89 ± 27.8 M⁻¹ s⁻¹.

B2: HSP90.7 (AtHSP90.7; mature form R73–L823) (Arabidopsis thaliana) (protein)
chain: RSNAEKFEFQAEVSRLMDIIINSLYSNKDIFLRELISNASDALDKIRFLALTDKDVLGEGDTAKLEIQIKLDKAKKILSIRDRGIGMTKEDLIKNLGTIAKSGTSAFVEKMQSSGDLNLIGQFGVGFYSAYLVADYIEVISKHNDDSQYVWESKANGKFAVSEDTWNEPLGRGTEIRLHLRDEAGEYLEESKLKELVKRYSEFINFPISLWASKEVETEVPVEEDESADEETETTSTEEEKEEDAEEEDGEKKQKTKKVKETVYEWELLNDVKAIWLRSPKEVTEEEYTKFYHSLSKDFTDEKPMAWSHFNAEGDVEFKAVLYVPPKAPHDLYESYYNSNKANLKLYVRRVFISDEFDELLPKYLSFLKGLVDSDTLPLNVSREMLQQHSSLKTIKKKLIRKALDMIRKLAEEDPDEIHDDEKKDVEKSGENDEKKGQYTKFWNEFGKSVKLGIIEDAANRNRLAKLLRFETTKSDGKLTSLDQYIKRMKKSQKDIFYITGSSKEQLEKSPFLERLIKKGYEVIFFTDPVDEYLMQYLMDYEDKKFQNVSKEGLKVGKDSKDKELKEAFKELTKWWKGNLASENVDDVKISNRLADTPCVVVTSKFGWSANMERIMQSQTLSDANKQAYMRGKRVLEINPRHPIIKELKDRIASDPEDESVKETAQLMYQTALIESGFILTDPKDFAARIYNSVKSGLNISPDAVADEEIEAAEEPETSEATETKSDDLAGGLNIEAEPVEQQEENTKDEL
notes: as for B1
Regarding B2, the Km worked out at 770 ± 180 µM, the catalytic constant (kcat) came out at 0.0377 ± 0.00283 s⁻¹ and the catalytic efficiency (kcat/Km) worked out at 49 ± 15.2 M⁻¹ s⁻¹.

For the origin of these results see publication PMC4265155, “A highly charged region in the middle domain of plant endoplasmic reticulum (ER)-localized heat-shock protein 90 is required for resistance to tunicamycin or high calcium-induced ER stresses” (Journal of Experimental Botany, 2014).
